The record followed here is PMC9060507 (Proceedings of the National Academy of Sciences of the …, 2022).

For this test, the target named is T1, Methylosinus trichosporium OB3b MbnBC enzyme complex (wild type) (Methylosinus trichosporium OB3b, UniProt A0A2D2D5M1;A0A2D2CY73).
T1 sequence 1: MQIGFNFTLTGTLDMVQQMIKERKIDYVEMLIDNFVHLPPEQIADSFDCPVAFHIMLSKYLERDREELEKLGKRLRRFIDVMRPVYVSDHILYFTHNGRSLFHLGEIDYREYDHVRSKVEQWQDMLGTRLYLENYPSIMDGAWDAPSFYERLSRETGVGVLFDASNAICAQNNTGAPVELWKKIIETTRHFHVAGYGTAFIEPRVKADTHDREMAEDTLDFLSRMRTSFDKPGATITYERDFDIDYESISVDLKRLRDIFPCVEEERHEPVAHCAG
T1 sequence 2: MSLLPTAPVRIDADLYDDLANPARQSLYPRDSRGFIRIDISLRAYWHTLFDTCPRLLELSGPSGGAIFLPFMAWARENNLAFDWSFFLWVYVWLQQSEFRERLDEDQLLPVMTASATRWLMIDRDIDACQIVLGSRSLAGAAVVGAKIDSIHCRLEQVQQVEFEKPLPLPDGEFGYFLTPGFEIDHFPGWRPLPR
The experiment in a line: EPR spectroscopy.

Take MTVKIAQKKVLPVIGRAAALCGSCYPCSCM [MbnA precursor peptide from Ms. trichosporium OB3b]: the binding result is reported as “binds”.
